How the values were obtained:
MS2 coat protein = assay: apparent KD of MS2 coat protein; higher = weaker reporter binding; details: Eterna round: R107
Procedure: (§1)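 RNA-MaP round R107: designed RNA switches with theophylline, tryptophan, arginine or FMN aptamers are transcribed on-chip within common flanks. They are titrated with SNAP-549-labelled MS2 coat protein in RNA-MaP buffer (100 mM Tris pH 7.5, 80 mM KCl, 4 mM MgCl2), without ligand or with the indicated ligand. Median apparent KD per design.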

[1] = tested on: K4 kissing-loop RNA reporter; assay: apparent KD of K4 kissing-loop reporter; higher = weaker reporter binding; details: Eterna round: R107;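 further: bound reporter read as fluorescence of individual clusters on recovered sequencing chips by microscopy, with normalized cluster intensities fitted with a binding model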
Procedure: as §1, with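 “a labelled K4 kissing-loop RNA reporter” for “SNAP-549-labelled MS2 coat protein”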

[2] = input ligand: theophylline 20 uM
[3] = input ligand: tryptophan 2.4 mM
[4] = input ligand: theophylline 2 mM

Sequence	apparent KD of MS2 coat protein (MS2 coat protein; input ligand: arginine 13.2 mM)	apparent KD of MS2 coat protein (MS2 coat protein; [2])	apparent KD of MS2 coat protein (MS2 coat protein; [3])	apparent KD of MS2 coat protein (MS2 coat protein; [4])	apparent KD of MS2 coat protein (MS2 coat protein; input ligand: none)	apparent KD of K4 kissing-loop reporter ([1]; input ligand: FMN 200 uM)	apparent KD of K4 kissing-loop reporter ([1]; input ligand: arginine 13.2 mM)	apparent KD of K4 kissing-loop reporter ([1]; input ligand: none)	apparent KD of K4 kissing-loop reporter [1, 2]	apparent KD of K4 kissing-loop reporter [1, 3]
AAAACACAUGAGGAUCACCCAUGUCGUGAUACCAGUCAACAUGAGGACCCUUGGCAGCAUAAAAUGGGUAACAUGAGGAUAACCC [AstrosEXyTheA#3]	75.4 nM	105 nM	101 nM							
AAAAUAAAUAAAACGCGUAACAUGAAGGAUACCAGCCAGAAAACUGGCCCUUGGCAGCCUCUACAUGAGGAUCACCCAUGUCGCG [Mat - Same State Theophlline A - Mod of Eli - D15]	161 nM	141 nM	332 nM							
AAACAUGAGGAUCACCCAUGUAUACUUAGACGAGGACCGGUACGGCCGCCACUCGAACUUCAAGAUUUGGCGGAAAAUGUAUGUA [JR_ExcTryptoA_Sub022]	9.71 nM	13 nM		12.1 nM						
AAACAUGAGGAUCACCCAUGUUGAGGAUCACGAGGACCGGUACGGCCGCCACUCGACAUGAGGAUCACCCAUGUGAGGAUCACCC [Same State - Tryptophan A #1]	52.5 nM	214 nM		337 nM						
AAACGUUGCUGCGAUACCAGACAUGAGGAUCACCCAUGUACCAAGGUAACCGAAAGGCAUGUCCCUUGGCAGCGCAGCAACGAAA [MAT - Exclusion Theophlline B - Mod of Eli - D17]	14.8 nM	18.9 nM	13.5 nM	262 nM	11.1 nM					
AAACGUUGCUGCGAUACCAGACAUGAGGAUCACCCAUGUACCGAGGUACCCGAAAGGAAUGUCCCUUGGCAGCGCAGCAACGAAA [MAT - Exclusion Theophlline B - Mod of Eli - D24]	11.2 nM	15.3 nM	11.7 nM	124 nM	11.7 nM					
AAAGAUCGGAAACGAUCGGCGGCUUGGGCGCGAGGACCGGUACGGCCGCCACUCGGGAAACAUGAGGAUCACCCAUGUUGCUUCU [ETA NP+V+V2 #16]	10 nM	12.5 nM		11.9 nM						
UUAGGAGUGGAAGGAUAUCCUGGUGUGGGUGAUGUUAGUGAUGUUGGAGGUGCAGUGAUGUUGCGCGGAGAAGGUCCGGUGUUGA [BDazzled - #5 - Exc. FMN B]						280 nM	299 nM	372 nM	435 nM	263 nM
UUAGGAGUGGGAGGAUAUCCUAAUGUGGGUGAUGUUAGCGAUGUUGAAAGUGUAGUGAUGUUGUGCGGAGAAGGUCCAGUGUUGA [BDazzled - #12 - Exc. FMN B]						197 nM	141 nM	175 nM	269 nM	168 nM
UUAGUCUAGAGAAGGAGCGCAGUGAUGUUGCGAAUAAUAAUAAUAAUAAAUAAAUAAUCGAUGCAGGUAGGUCGCUCUAGACAUU [AK1 Exc Arginine B]						217 nM	422 nM	288 nM	335 nM	213 nM
UUAUAACCCAGUGAUGUUGGGUAGCGGCCACGAGGACCGGUACGGCCGCCACUCGAGGUUUAACCAGUGAUGUUGGACUAUAUAA [Same state Tryptophan A GF 4]						51 nM	35.2 nM	47 nM	34.5 nM	23.7 nM
UUAUACUCAUGUAAAGAACUAGUAACCGAAGGAGCGACAUAAAAGUCAGGUAGGUCGCGGAUUUCUCAGUGAUGUUGAGAGCAUU [JR_SSArginiA_Sub012]						109 nM	192 nM	121 nM	185 nM	93.9 nM
UUAUUAUUCAGUGAUGUUGAAUUUAUUUCAGAGGAUAUGCAUAAAUGCAGAAGGCUGUAAUACUAUACUUUAAUAAAUUAAAUUU [JR_SSFMNA_Sub018]						242 nM	250 nM	248 nM	262 nM	203 nM
UUCAGGUGUUCGGCCGCCACUCCAGUGAUGUUGGAGUGGCUUCACAAGGGCCAGGACAAUGUAAGGAGGACCGGGAAUAUCGCAG [Quonerar]						127 nM	116 nM	123 nM	89.2 nM	134 nM
UUCUAAAUGUCUGAUACCAGAGAAAAUAUAUGUAGUGAUGUUAUAUACAAAUUUAAUAAGCUCCCUUGGCAGCAGUAUGAAUUUU [AstrosExc-TheB#13]						705 nM	744 nM	949 nM	755 nM	595 nM
UUCUGCAUCUCGGCCGCCACUCACUAGUGAUGUUAGUAAGGAGCGACUAGAAAAGUCCAGUUAAUGAGGACCGGGAGAAGCUCUU [Exclusion Tryptophan B GF 1]						281 nM	298 nM	312 nM	199 nM	217 nM

Sequence	apparent KD of MS2 coat protein (MS2 coat protein; input ligand: arginine 13.2 mM)	apparent KD of MS2 coat protein (MS2 coat protein; [2])	apparent KD of MS2 coat protein (MS2 coat protein; [3])	apparent KD of MS2 coat protein (MS2 coat protein; [4])	apparent KD of MS2 coat protein (MS2 coat protein; input ligand: none)	apparent KD of K4 kissing-loop reporter ([1]; input ligand: FMN 200 uM)	apparent KD of K4 kissing-loop reporter ([1]; input ligand: arginine 13.2 mM)	apparent KD of K4 kissing-loop reporter ([1]; input ligand: none)	apparent KD of K4 kissing-loop reporter [1, 2]	apparent KD of K4 kissing-loop reporter [1, 3]
UUCUGCAUCUCGGCCGCCACUCACUAGUGAUGUUAGUAAGGAGCGACUAGACAUGUCCCGUUAUUGAGGACCGGGAGAGGCUCUU [#13 K4 Tryptophan B Exclusion]						208 nM	162 nM	192 nM	162 nM	140 nM
UUGACCAAAUUCCGGUGAUCAUCGCCGCCGCGAGGACCGGUACGGCCGCCACUCGUCCCUAUGCUCGGAGUAGUGAUGUUAUUCA [theeternabot_sameState_KL_Trp_A_43]						557 nM	197 nM	529 nM	280 nM	574 nM
UUGUUUGGUUGAGAGGUUGGGCGAGAUGAUACCAGUAGAGAAGAGUACCCUUGGCAGCAUAGGAGAGAUAUAGUGAUGUUGUAUG [SSTheophA.S]						258 nM	187 nM	320 nM	498 nM	299 nM
UUGUUUGGUUGAGAGGUUGGGCGAGAUGAUACCAGUAUAUAAGAAUACCCUUGGCAGCAUAAGAAAGAUAUAGUGAUGUUGUAUA [SSTheophA.M]						520 nM	379 nM	645 nM	672 nM	457 nM
UUUAAAUAUAGUGAUGUUAUAUAACAAUGACGAGGACCGGUACGGCCGCCACUCGAGAGAGAUAAUGGUCAUACAAAUGUAUGUU [AstrosSSTryA#10]						672 nM	677 nM	738 nM	789 nM	529 nM
UUUACUCCGAGUGAUGUUCGGCGUAUCUGACGAGGACCGGUACGGCCGCCACUCGGUUCGACUACGAAGGCCUUGGCCACAGAUU						268 nM	174 nM	257 nM	284 nM	285 nM
UUUAUAAAGUCGGCCGCCACUGGAUUUAUAUUUGUUUAGUCUGGAUCAAAGUGAUGUUUUGAGUCCAGGACCGGGACAUUUGUUA [whbob_Ex_Tryp_B_w36]						92.1 nM	85.9 nM	93.5 nM	91.9 nM	172 nM
UUUAUGAUGUCGGCCGCCACUGGAUUAAUAUGUGUGUAAUCUAGUUCUGAGUGAUGUUUAGAGUCCAGGACCGGGACAUUAGUUA [#12 K4 Tryptophan B Exclusion]						719 nM	476 nM	652 nM	832 nM	700 nM
UUUAUUAAGACGGCCGCCACUGAAUUAGAGUGAUGUUCUAUAAUUUCUAAAUUAAAUUUAUUCAACAGGACCGGGUCAAUUAUUA [JR_SSTryptoB_Sub011]						384 nM	364 nM	382 nM	392 nM	314 nM
UUUAUUAAGACGGCCGCCACUGAUUCAUAGUGAUGUUAUGAUAUAAUUUUAGUGAUAUGCAUUAGCAGGACCGGGUCAAUUAUUA [JR_ExcTryptoB_Sub017]						158 nM	146 nM	166 nM	142 nM	173 nM
UUUGCAAAGUCGGCCGCCACUCCGGGCCCUAUAAAUGGGCGCAGUGAUGUUGCGGCUAGGCCUCUGAGGACCGGGACUUUGUAAA [Inusleve]						151 nM	52.1 nM	52.3 nM	77.2 nM	179 nM
UUUGGAUUGCACUAAGAGCGCAAGCGCCAACGAGGACCGGUACGGCCGCCACUCGCGGAGGAGUCCAGUGAUGUUGGACGGCCCG [Onenusan]						233 nM	359 nM	359 nM	180 nM	172 nM
UUUGUAUAGGGAAGGAGCGUGAAUGAUAAUGAAUAUAGUGAUGUUAUAUAUAAGAAAGAAUCACAGGUAGGUCGCCCGGAUGAGG [SSArgB.K]						557 nM	400 nM	565 nM	855 nM	412 nM
UUUUAAAUGUCUGAUACCAGAGAAAAUUUAUGUAGUGAUGUUAUAUACAAAUUAAAUAAGCUCCCUUGGCAGCAGUAUUAAUUUU [AstrosExc-TheB#9]						583 nM	596 nM	846 nM	623 nM	552 nM
UUUUAUAACCGAAGGAGCGCGUGGGCGCAGUGAUGUUGCGCCCGACAUCACUUCAACUUAACGCAGGUAGGUCGCGGUUUUAAUA [Arginine B (Excl) V2]						157 nM	132 nM	159 nM	158 nM	153 nM

Source: the supplement of paper PMC9170038
